Earlier results on 1 substance are cited in article PMC10990137.

In this series the target is IGF2R domain 11 (Homo sapiens) (UniProt P11717). To be noted: cited from earlier work.
Sequence of IGF2R domain 11 (Homo sapiens) (P11717 1508-1650): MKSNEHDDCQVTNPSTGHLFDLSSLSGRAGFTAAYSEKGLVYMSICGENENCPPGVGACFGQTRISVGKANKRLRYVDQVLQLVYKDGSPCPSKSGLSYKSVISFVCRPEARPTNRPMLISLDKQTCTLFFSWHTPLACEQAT

Sequence of IGF2 (P01344 25-91): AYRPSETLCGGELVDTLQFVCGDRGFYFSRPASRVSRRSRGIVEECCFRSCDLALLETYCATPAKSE

One may read the Kd as the equilibrium constant for the complex coming apart. Turning to IGF2 (from UniProt P01344), the Kd was 4.5 nM.
